# Where two headings read alike, the source gives them in different places.
# System: SARS-CoV-2
# Conditions: for All cause death or hospitalization for COVID-19: Bayes prob, Dichotomous / All cause death or hospitalization for COVID-19: Bayes prob, TTE / All cause death or hospitalization for COVID-19: HR (95% CrI), TTE / All cause death or hospitalization for COVID-19: RR (95% CrI), Dichotomous / ER visit ≥6 h or hospitalization due to COVID-19: Bayes prob, Dichotomous / ER visit ≥6 h or hospitalization due to COVID-19: Bayes prob, TTE / ER visit ≥6 h or hospitalization due to COVID-19: HR (95% CrI), TTE / ER visit ≥6 h or hospitalization due to COVID-19: RR (95% CrI), Dichotomous: vs placebo
# [1] = ITT preliminary, n=916 vs placebo 1020, 28 days
# [2] = ITT preliminary, n=916 vs placebo 1020, 28 days, listed as Interferon lambda
# [3] = ITT preliminary, n=916 vs placebo 1020, 28 days, listed as Lambda
# [4] = Treated within 3 days of symptom onset, n=539 vs placebo 586
# [5] = Treated within 5 days of symptom onset, n=800 vs placebo 879
molecule,measurement,setting,value
"pegylated interferon lambda-1a (protein, PEG, 180 mcg subcutaneous injection) MKPTTTGKGCHIGRFKSLSPQELASFKKARDALEESLKLKNWSCSSPVFPGNWDLRLLQVRERPVALEAELALTLKVLEAAAGPALEDVLDQPLHTLHHILSQLQACIQPQPTAGPRPRGRLHHWLHRLQEAPKKESAGCLEASVTFNLFRLLTRDLKYVADGNLSLRTSTHPEST","Death or hospitalization due to COVID-19, % of patients",[1],(2.4%)
same,"Death or hospitalization due to COVID-19, RR (95% CrI) vs placebo",[1],"0.61 (0.36, 0.99)"
same,"Hospitalization for COVID-19, RR (95% CrI) vs placebo",[1],"0.58 (0.34, 0.95)"
same,"Hospitalization or ER (any duration) for COVID-19, % of patients",[1],(10.6%)
same,"Hospitalization or ER (any duration) for COVID-19, Pr (Superiority)",[1],0.984
same,"Hospitalization or ER (any duration) for COVID-19, RR (95% CrI) vs placebo",[1],"0.77 (0.60, 0.98)"
same,"Hospitalization or ER ≥6 h for COVID-19, Pr (Superiority)",[1],0.999
same,"Hospitalization or ER ≥6 h for COVID-19, RR (95% CrI) vs placebo",[1],"0.50 (0.31, 0.77)"
same,"Death due to COVID-19, % of patients",[2],(0.1%)
same,"Hospitalization for COVID-19, % of patients",[2],(2.3%)
same,"Hospitalization or ER ≥6 h for COVID-19, % of patients",[2],(2.7%)
same,"Death due to COVID-19, % of patients",[3],0.1%
same,"Hospitalization for COVID-19, % of patients",[3],2.3%
same,"Hospitalization or ER ≥6 h for COVID-19, % of patients",[3],2.7%
same,All cause death or hospitalization for COVID-19: events/patients,Omicron and not vaccinated,0/9
same,ER visit ≥6 h or hospitalization due to COVID-19: events/patients,Omicron and not vaccinated,0/9
same,"All cause death or hospitalization for COVID-19: Bayes prob, Dichotomous",Omicron and not vaccinated,0.532
same,"All cause death or hospitalization for COVID-19: Bayes prob, TTE",Omicron and not vaccinated,0.912
same,"All cause death or hospitalization for COVID-19: HR (95% CrI), TTE",Omicron and not vaccinated,"0.00 (0.00, 4.43)"
same,"All cause death or hospitalization for COVID-19: RR (95% CrI), Dichotomous",Omicron and not vaccinated,"0.90 (0.03, 10.04)"
same,"ER visit ≥6 h or hospitalization due to COVID-19: Bayes prob, Dichotomous",Omicron and not vaccinated,0.532
same,"ER visit ≥6 h or hospitalization due to COVID-19: Bayes prob, TTE",Omicron and not vaccinated,0.912
same,"ER visit ≥6 h or hospitalization due to COVID-19: HR (95% CrI), TTE",Omicron and not vaccinated,"0.00 (0.00, 4.43)"
same,"ER visit ≥6 h or hospitalization due to COVID-19: RR (95% CrI), Dichotomous",Omicron and not vaccinated,"0.90 (0.03, 10.04)"
same,All cause death or hospitalization for COVID-19: events/patients,Omicron and onset ≤3 days,0/281
same,ER visit ≥6 h or hospitalization due to COVID-19: events/patients,Omicron and onset ≤3 days,0/281
same,"All cause death or hospitalization for COVID-19: Bayes prob, Dichotomous",Omicron and onset ≤3 days,0.977
same,"All cause death or hospitalization for COVID-19: Bayes prob, TTE",Omicron and onset ≤3 days,0.9982
same,"All cause death or hospitalization for COVID-19: HR (95% CrI), TTE",Omicron and onset ≤3 days,"0.00 (0.00, 0.35)"
same,"All cause death or hospitalization for COVID-19: RR (95% CrI), Dichotomous",Omicron and onset ≤3 days,"0.14 (0.00, 0.96)"
same,"ER visit ≥6 h or hospitalization due to COVID-19: Bayes prob, Dichotomous",Omicron and onset ≤3 days,0.998
same,"ER visit ≥6 h or hospitalization due to COVID-19: Bayes prob, TTE",Omicron and onset ≤3 days,0.9999
same,"ER visit ≥6 h or hospitalization due to COVID-19: HR (95% CrI), TTE",Omicron and onset ≤3 days,"0.00 (0.00, 0.17)"
same,"ER visit ≥6 h or hospitalization due to COVID-19: RR (95% CrI), Dichotomous",Omicron and onset ≤3 days,"0.08 (0.00, 0.50)"
same,All cause death or hospitalization for COVID-19: events/patients,Omicron and vaccinated,2/428
same,ER visit ≥6 h or hospitalization due to COVID-19: events/patients,Omicron and vaccinated,2/428
same,"All cause death or hospitalization for COVID-19: Bayes prob, Dichotomous",Omicron and vaccinated,0.876
same,"All cause death or hospitalization for COVID-19: Bayes prob, TTE",Omicron and vaccinated,0.911
same,"All cause death or hospitalization for COVID-19: HR (95% CrI), TTE",Omicron and vaccinated,"0.34 (0.05, 1.52)"
same,"All cause death or hospitalization for COVID-19: RR (95% CrI), Dichotomous",Omicron and vaccinated,"0.46 (0.09, 1.69)"
same,"ER visit ≥6 h or hospitalization due to COVID-19: Bayes prob, Dichotomous",Omicron and vaccinated,0.999
same,"ER visit ≥6 h or hospitalization due to COVID-19: Bayes prob, TTE",Omicron and vaccinated,0.9998
same,"ER visit ≥6 h or hospitalization due to COVID-19: HR (95% CrI), TTE",Omicron and vaccinated,"0.11 (0.02, 0.42)"
same,"ER visit ≥6 h or hospitalization due to COVID-19: RR (95% CrI), Dichotomous",Omicron and vaccinated,"0.17 (0.04, 0.53)"
same,All cause death or hospitalization for COVID-19: events/patients,Omicron subgroup,2/439
same,ER visit ≥6 h or hospitalization due to COVID-19: events/patients,Omicron subgroup,2/439
same,"All cause death or hospitalization for COVID-19: Bayes prob, Dichotomous",Omicron subgroup,0.914
same,"All cause death or hospitalization for COVID-19: Bayes prob, TTE",Omicron subgroup,0.9477
same,"All cause death or hospitalization for COVID-19: HR (95% CrI), TTE",Omicron subgroup,"0.29 (0.04, 1.27)"
same,"All cause death or hospitalization for COVID-19: RR (95% CrI), Dichotomous",Omicron subgroup,"0.41 (0.08, 1.45)"
same,"ER visit ≥6 h or hospitalization due to COVID-19: Bayes prob, Dichotomous",Omicron subgroup,>0.9999
same,"ER visit ≥6 h or hospitalization due to COVID-19: Bayes prob, TTE",Omicron subgroup,0.9999
same,"ER visit ≥6 h or hospitalization due to COVID-19: HR (95% CrI), TTE",Omicron subgroup,"0.11 (0.02, 0.43)"
same,"ER visit ≥6 h or hospitalization due to COVID-19: RR (95% CrI), Dichotomous",Omicron subgroup,"0.17 (0.04, 0.50)"
same,"risk reduction, hospitalization alone","Phase 3 study, single s.c. dose within 7 days of symptom onset",44%
same,"Log odds (95% CrI) vs Placebo, Bayesian logistic regression",Table 11 Model 1: Treatment alone,"−0.69 (−1.17, −0.26)"
same,"Log odds vs Placebo, Bayesian logistic regression",Table 11 Model 2: Unvaccinated as an effect-modifier,−0.67
same,"OR (95% CrI) vs Placebo, Bayesian logistic regression",Table 12 Model 1: Treatment alone,"0.50 (0.31, 0.77)"
same,"OR (95% CrI) vs Placebo, Bayesian logistic regression",Table 12 Model 2: Treatment + Vaccination,"0.49 (0.29, 0.78)"
same,"OR (95% CrI) vs Placebo, Bayesian logistic regression",Table 12 Model 3: Treatment + Vaccination + Early onset (≤3 days),"0.48 (0.29, 0.77)"
same,"OR (95% CrI) vs Placebo, Bayesian logistic regression",Table 12 Model 4: Treatment + Vaccination + Early onset (≤5 days),"0.48 (0.29, 0.77)"
same,"Death due to COVID-19, % of patients",[4],(0%)
same,"Death due to COVID-19, RR (95% CrI) vs placebo",[4],"0.21 (0.01, 1.66)"
same,"Death or hospitalization due to COVID-19, % of patients",[4],(1.5%)
same,"Death or hospitalization due to COVID-19, RR (95% CrI) vs placebo",[4],"0.40 (0.18, 0.83)"
same,"Hospitalization for COVID-19, % of patients",[4],(1.5%)
same,"Hospitalization for COVID-19, RR (95% CrI) vs placebo",[4],"0.40 (0.18, 0.82)"
same,"Hospitalization or ER (any duration) for COVID-19, % of patients",[4],(10%)
same,"Hospitalization or ER (any duration) for COVID-19, Pr (Superiority)",[4],0.964
same,"Hospitalization or ER (any duration) for COVID-19, RR (95% CrI) vs placebo",[4],"0.75 (0.54, 1.03)"
same,"Hospitalization or ER ≥6 h for COVID-19, % of patients",[4],(2%)
same,"Hospitalization or ER ≥6 h for COVID-19, Pr (Superiority)",[4],0.996
same,"Hospitalization or ER ≥6 h for COVID-19, RR (95% CrI) vs placebo",[4],"0.43 (0.21, 0.81)"
same,"Death due to COVID-19, % of patients",[5],(0.1%)
same,"Death due to COVID-19, RR (95% CrI) vs placebo",[5],"0.39 (0.05, 1.96)"
same,"Death or hospitalization due to COVID-19, % of patients",[5],(2.2%)
same,"Death or hospitalization due to COVID-19, RR (95% CrI) vs placebo",[5],"0.56 (0.32, 0.96)"
same,"Hospitalization for COVID-19, % of patients",[5],(2.1%)
same,"Hospitalization for COVID-19, RR (95% CrI) vs placebo",[5],"0.53 (0.29, 0.91)"
same,"Hospitalization or ER (any duration) for COVID-19, % of patients",[5],(10.2%)
same,"Hospitalization or ER (any duration) for COVID-19, Pr (Superiority)",[5],0.992
